Test results published in paper PMC12796488, “Distinct structural features of Pseudomonas aeruginosa ATP synthase revealed by cryo-electron microscopy” (Nature Communications, 2025).

Target: the molecule itself
Assay: cryo-EM structure; purified F1Fo complex in digitonin; 10 mM MgADP and 230 uM compound #5 added, 1 h on ice before freezing; maps at 2.0-3.0 Å

B1: P. aeruginosa ATP synthase subunit c (natural protein, Pseudomonas aeruginosa, UniProt Q9HT15 1-85, looked up)
chain: METVVGLTAIAVALLIGLGALGTAIGFGLLGGKFLEGAARQPEMVPMLQVKMFIVAGLLDAVTMIGVGIALFFTFANPFVGQIAG
notes: ATP synthase subunit c of Pseudomonas aeruginosa, expressed from the whole operon (atpIBEFHAGDC) plasmid pASH20; A ring of ten copies in the cryo-EM maps; also called c subunit; c-ring; source: E. coli DK8, purified as part of the whole F1Fo complex (digitonin extraction, Talon resin, Superose 6 SEC); copies: 10
- stoichiometry N: 10
